Measured values reported in patent publication US20080267953A1 (Kyowa Kirin, published 2008).

What was measured:
[1] = target: T1, polypeptide encoded by the human PERP gene, endogenously expressed on human cancer cell lines (PC9 / PC-9, … (human, UniProt Q96FX8 1-193)); assay: flow cytometry on PC-9 cells
T1 construct: Four-transmembrane protein of 193 amino acids; also called hPERP; THW
Experimental: (§1) Binding activity of an anti-PERP humanized antibody having no consensus sequence of an N-linked sugar chain purified in (5) of Example 3 to CHO/PERP (KC1359) expressing a polypeptide encoded by the PERP gene, or PC9 cells used in (1) of Example 1 was measured using a fluorescent antibody technique as described below.
CHO/PERP or PC9 cells (2 to 3×10⁵ per well) were dispensed in a 96-well U-shaped plate, a modified antibody wherein the anti-PERP humanized antibody having no consensus sequence of an N-linked sugar chain was diluted in eight stages in a 2-fold dilution starting from 10 μg/ml using a buffer for FCM (1% BSA-PBS, 0.02% EDTA and 0.05% NaN₃) was dispensed in an amount of 100 μL/well or the modified antibody diluted in eight stages in a 5-fold dilution starting from 10 μg/ml and a reaction was carried out on ice for 30 minutes. After washing with a buffer for FCM once, a solution in which a PE-labeled anti-human IgG (H+ L) antibody (manufactured by Beckmann-Coulter) diluted 50-fold with a buffer for FCM was added thereto in an amount of 100 μL/well. After the mixture was allowed to react for 30 minutes on ice protecting from the light, it was washed with a buffer for FCM twice and fluorescence intensity was measured using a flow cytometer. […]

[2] = target: T2, human PERP with C-terminal myc-His tag expressed on CHO/DG44 cells from plasmid pcPERPmH (human, UniProt Q96FX8 1-193); assay: flow cytometry on CHO/PERP (KC1359)
T2 construct: The gene was cloned from plasmid HEMBA 1006335 (GenBank AK 074585); also called PERP/CHO cell; CHO/hPERP
Experimental: as §1
CHO/PERP or PC9 cells (2 to 3×10⁵ per well) were dispensed in a 96-well U-shaped plate, a modified antibody wherein the anti-PERP humanized antibody having no consensus sequence of an N-linked sugar chain was diluted in eight stages in a 2-fold dilution starting from 10 μg/ml using a buffer for FCM (1% BSA-PBS, 0.02% EDTA and 0.05% NaN₃) was dispensed in an amount of 100 μL/well or the modified antibody diluted in eight stages in a 5-fold dilution starting from 10 μg/ml and a reaction was carried out on ice for 30 minutes. After washing with a buffer for FCM once, a solution in which a PE-labeled anti-human IgG (H+ L) antibody (manufactured by Beckmann-Coulter) diluted 50-fold with a buffer for FCM was added thereto in an amount of 100 μL/well. After the mixture was allowed to react for 30 minutes on ice protecting from the light, it was washed with a buffer for FCM twice and fluorescence intensity was measured using a flow cytometer. As a positive control, the anti-PERP human chimeric antibody KM3481 described in Reference Example 2 or the anti-PERP human chimeric antibody KM3821 (KM3821) having no consensus sequence of an N-linked sugar chain produced in Example 1 was used.

[3] = target: T1, polypeptide encoded by the human PERP …; assay: flow cytometry on PC9 cells expressing PERP
[4] = target: T2, human PERP with C-terminal myc-His tag …; assay: FMAT fluorescent cell staining, hybridoma culture supernatant, PERP/CHO against CHO/DG44 cells
Experimental: With regard to the cells for the assay, PERP/CHO cells and CHO/DG44 cells produced in (1) of Reference Example 1 were used. The cells which were cultured on an Iscove's Modified Dulbecco's medium containing 10% fetal bovine serum (manufactured by Invitrogen) for 2 to 3 days and peeled off with a Tripsin-EDTA solution (manufactured by Invitrogen) were suspended on the same medium, seeded onto a black 96-well plates for FMAT at 7×10³ cells/100 μL medium/well and cultured overnight. Mouse anti-serum to be immunized or cultured supernatant of hybridoma cells was dispensed into the plate at 5 μL/well as a primary antibody, and ALEXA 647-labeled anti-mouse immunoglobulin G (H+ L) (manufactured by Molecular Probe) was dispensed at 50 μL/well as a secondary antibody, and the plate was allowed to stand for 4 hours under shading the light. Wavelength of 650 to 685 nm excited by laser beam of 633 nm He/Ne was measured by an FMAT 8100 HTS system (manufactured by Applied Biosystem).

[5] = target: T1, polypeptide encoded by the human PERP …; assay: flow cytometry on Colo 205 cells

Row | binding result [2] | binding result [3] | Binder | also measured
1 | – | binds | anti-PERP CDR-modified antibody ver.6 (antibody, V domains shown, Human chimeric antibody of IgG class; also called pKANTEX3411 CDR v6) VH: DVQLQESGPGLVKPSQSLSLTCTVTGFSITTEYAWNWIRQFPGNRLEWMGYIGYTGRTGYAPSLKSRISITRDTSKNQFFLQLNSVTTEDTATYYCTRMDYWGQGTSVTVSS VL: QIVLIQSPVIMSASPGEKVTITCSASSSVSYMHWFQQKPGTSPKLWIYSTSNLASGVPARFSGSGSGTSYSLTISRMEAEDAATYYCQQRSSYPPTFGAGTKLELK | –
2 | – | binds | anti-PERP CDR-modified antibody ver.2 (antibody, V domains shown, Human chimeric antibody of IgG class; also called pKANTEX3411 CDR v2) VH: DVQLQESGPGLVKPSQSLSLTCTVTGFSITTEYAWNWIRQFPGNRLEWMGYIGYTGRTGYSPSLKSRISITRDTSKNQFFLQLNSVTTEDTATYYCTRMDYWGQGTSVTVSS VL: QIVLIQSPVIMSASPGEKVTITCSASSSVSYMHWFQQKPGTSPKLWIYSTSNLASGVPARFSGSGSGTSYSLTISRMEAEDAATYYCQQRSSYPPTFGAGTKLELK | –
3 | – | binds | anti-PERP CDR-modified antibody ver.3 (antibody, V domains shown, Human chimeric antibody of IgG class; also called pKANTEX3411 CDR v3) VH: DVQLQESGPGLVKPSQSLSLTCTVTGFSITTEYAWNWIRQFPGNRLEWMGYIGYTGRTYYSPSLKSRISITRDTSKNQFFLQLNSVTTEDTATYYCTRMDYWGQGTSVTVSS VL: QIVLIQSPVIMSASPGEKVTITCSASSSVSYMHWFQQKPGTSPKLWIYSTSNLASGVPARFSGSGSGTSYSLTISRMEAEDAATYYCQQRSSYPPTFGAGTKLELK | –

The remaining lines, values behind:

Row | Binder | binding result [2] | binding result [3] | also measured
4 | anti-PERP humanized antibody HV4LV4 (antibody, V domains shown) VH: QVQLQESGPGLVKPSQTLSLTCTVSGFSISTEYAWNWIRQFPGKGLEWIGYIGYTGRTNYAPSLKSRITISRDTSKNQFSLQLSSVTAEDTATYYCTRMDYWGQGTLVTVSS VL: DIQMTQSPSSLSASVGDRVTITCSASSSVSYMHWFQQKPGKAPKLWIYSTSNLASGVPSRFSGSGSGTDYTLTISSMQPEDFATYYCQQRSSYPPTFGQGTKVEIK | binds | – | binding result [1]: binds
5 | anti-PERP humanized antibody HV8LV7 (antibody, V domains shown) VH: QVQLQESGPGLVKPSQTLSLTCTVSGFSITTEYAWNWIRQFPGNRLEWMGYIGYTGRTNYAPSLKSRITISRDTSKNQFSLQLSSVTAEDTATYYCTRMDYWGQGTLVTVSS VL: DIVMIQSPSSLSASVGDRVTITCSASSSVSYMHWFQQKPGKSPKLWIYSTSNLASGVPSRFSGSGSGTDYTLTISSMQPEDFATYYCQQRSSYPPTFGQGTKVEIK | binds | – | –
6 | anti-PERP humanized antibody HV4LV7 (antibody, V domains shown) VH: QVQLQESGPGLVKPSQTLSLTCTVSGFSISTEYAWNWIRQFPGKGLEWIGYIGYTGRTNYAPSLKSRITISRDTSKNQFSLQLSSVTAEDTATYYCTRMDYWGQGTLVTVSS VL: DIVMIQSPSSLSASVGDRVTITCSASSSVSYMHWFQQKPGKSPKLWIYSTSNLASGVPSRFSGSGSGTDYTLTISSMQPEDFATYYCQQRSSYPPTFGQGTKVEIK | binds | – | –
7 | anti-PERP humanized antibody HV4LV3 (antibody, V domains shown) VH: QVQLQESGPGLVKPSQTLSLTCTVSGFSISTEYAWNWIRQFPGKGLEWIGYIGYTGRTNYAPSLKSRITISRDTSKNQFSLQLSSVTAEDTATYYCTRMDYWGQGTLVTVSS VL: DIQMTQSPSSLSASVGDRVTITCSASSSVSYMHWYQQKPGKAPKLWIYSTSNLASGVPSRFSGSGSGTDYTLTISSMQPEDFATYYCQQRSSYPPTFGQGTKVEIK | binds | – | –
8 | anti-PERP humanized antibody HV8LV0 (antibody, V domains shown) VH: QVQLQESGPGLVKPSQTLSLTCTVSGFSITTEYAWNWIRQFPGNRLEWMGYIGYTGRTNYAPSLKSRITISRDTSKNQFSLQLSSVTAEDTATYYCTRMDYWGQGTLVTVSS VL: DIQMTQSPSSLSASVGDRVTITCSASSSVSYMHWYQQKPGKAPKLLIYSTSNLASGVPSRFSGSGSGTDFTLTISSLQPEDFATYYCQQRSSYPPTFGQGTKVEIK | – | – | binding activity relative to KM3821 [2]: ~0.2 fraction of the binding activity of KM3821
9 | anti-PERP CDR-modified antibody ver.1 (antibody, V domains shown, Human chimeric antibody of IgG class; also called pKANTEX3411 CDR v1) VH: DVQLQESGPGLVKPSQSLSLTCTVTGFSITTEYAWNWIRQFPGNRLEWMGYIGYTGRTSYSPSLKSRISITRDTSKNQFFLQLNSVTTEDTATYYCTRMDYWGQGTSVTVSS VL: QIVLIQSPVIMSASPGEKVTITCSASSSVSYMHWFQQKPGTSPKLWIYSTSNLASGVPARFSGSGSGTSYSLTISRMEAEDAATYYCQQRSSYPPTFGAGTKLELK | – | binds | –
10 | anti-PERP CDR-modified antibody ver.5 (antibody, V domains shown, Human chimeric antibody of IgG class; also called pKANTEX3411 CDR v5) VH: DVQLQESGPGLVKPSQSLSLTCTVTGFSITTEYAWNWIRQFPGNRLEWMGYIGYTGRTSYAPSLKSRISITRDTSKNQFFLQLNSVTTEDTATYYCTRMDYWGQGTSVTVSS VL: QIVLIQSPVIMSASPGEKVTITCSASSSVSYMHWFQQKPGTSPKLWIYSTSNLASGVPARFSGSGSGTSYSLTISRMEAEDAATYYCQQRSSYPPTFGAGTKLELK | – | binds | –
11 | anti-PERP mouse monoclonal antibody KM3411 (hybridoma FERM BP-8643) (antibody, V domains shown, Mouse IgG1; also called anti-PERP mouse antibody KM3411) VH: DVQLQESGPGLVKPSQSLSLTCTVTGFSITTEYAWNWIRQFPGNRLEWMGYIGYTGRTNYSPSLKSRISITRDTSKNQFFLQLNSVTTEDTATYYCTRMDYWGQGTSVTVSS VL: QIVLIQSPVIMSASPGEKVTITCSASSSVSYMHWFQQKPGTSPKLWIYSTSNLASGVPARFSGSGSGTSYSLTISRMEAEDAATYYCQQRSSYPPTFGAGTKLELK | – | – | binding result [4]: binds; binding result [5]: binds
